Here are results for two molecules from patent US20150197559A1 (University of California, published 2015).

Experiment [1] has as its target T1, BoNT/B1 (Clostridium botulinum, UniProt P10844 2-1291).
T1 sequence: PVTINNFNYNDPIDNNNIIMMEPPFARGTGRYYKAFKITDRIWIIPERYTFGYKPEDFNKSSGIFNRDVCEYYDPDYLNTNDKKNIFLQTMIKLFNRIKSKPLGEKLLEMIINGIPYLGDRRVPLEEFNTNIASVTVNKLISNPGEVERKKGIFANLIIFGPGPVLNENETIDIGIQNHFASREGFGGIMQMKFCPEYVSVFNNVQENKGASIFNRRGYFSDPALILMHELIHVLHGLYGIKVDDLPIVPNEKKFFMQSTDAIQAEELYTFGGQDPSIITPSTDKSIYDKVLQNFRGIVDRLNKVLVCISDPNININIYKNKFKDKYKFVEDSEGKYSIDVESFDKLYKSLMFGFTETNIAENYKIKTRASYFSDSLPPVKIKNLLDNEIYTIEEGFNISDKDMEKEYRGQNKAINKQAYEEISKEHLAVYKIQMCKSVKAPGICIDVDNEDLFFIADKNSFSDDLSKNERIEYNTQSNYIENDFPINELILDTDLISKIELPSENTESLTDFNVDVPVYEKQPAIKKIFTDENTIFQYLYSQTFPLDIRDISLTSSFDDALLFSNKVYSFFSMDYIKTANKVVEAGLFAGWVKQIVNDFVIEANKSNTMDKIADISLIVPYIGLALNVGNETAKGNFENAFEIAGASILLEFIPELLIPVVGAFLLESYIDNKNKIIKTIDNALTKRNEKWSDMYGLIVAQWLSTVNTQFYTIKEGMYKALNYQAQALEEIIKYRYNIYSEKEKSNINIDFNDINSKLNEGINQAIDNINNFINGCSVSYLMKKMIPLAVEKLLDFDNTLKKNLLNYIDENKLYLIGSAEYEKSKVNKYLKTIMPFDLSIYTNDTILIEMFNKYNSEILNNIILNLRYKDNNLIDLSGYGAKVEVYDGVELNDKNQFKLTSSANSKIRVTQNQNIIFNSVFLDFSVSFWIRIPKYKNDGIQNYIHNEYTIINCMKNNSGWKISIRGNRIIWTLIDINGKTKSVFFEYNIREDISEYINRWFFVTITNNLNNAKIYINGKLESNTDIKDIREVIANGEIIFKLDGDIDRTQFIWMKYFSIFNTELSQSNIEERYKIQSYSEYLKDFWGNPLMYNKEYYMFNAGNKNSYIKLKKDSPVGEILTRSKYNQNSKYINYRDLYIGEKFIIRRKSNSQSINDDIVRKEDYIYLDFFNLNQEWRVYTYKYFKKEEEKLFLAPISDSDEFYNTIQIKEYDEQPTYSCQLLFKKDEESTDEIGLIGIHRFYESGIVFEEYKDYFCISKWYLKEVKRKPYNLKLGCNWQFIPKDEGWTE
Description: KinExA flow fluorimetry, IgG in solution. (In general: Kinetic exclusion samples the free partner from a solution-phase mixture.)

For experiment [2], the target named is T1, BoNT/B1. The experiment is described as follows: yeast-displayed scFv, flow cytometry; reference parental scFv 1B18. On the technique in general: A flow cytometer gives signals particle by particle.
Experiment [3] deals with T1, BoNT/B1. Description: flow cytometry, yeast-displayed affinity matured scFv.

B1: 2B18.1 IgG (antibody, V domains shown)
VH: QVQLVQSGGGLVQPGGSRRLSCAASGFYFNAYWMTWVRQAPGKGLEWVANINLDGTEIYYLDSVKGRFTVSRDNVKNSVFLQMSSLRVEDTAVYFCARLEWGGRNGWVSPWGQGTLVTVSS
VL: DIVMTQSPSSLSASVGDRVSISCRASQSISSYLNWYQQKPGKAPKLLIYKTSSLESGVPSRFSGRGSGTDFTLTISSLQPEDFATYYCQQSYSTPLTFGGGTKVEIKR
The term Kd denotes a measure of binding affinity in units of concentration. Molecule B1 yielded a Kd in experiment [1] of 0.0724 nM.

B2: 2B18.1 scFv (scFv)
scFv: QVQLVQSGGGLVQPGGSRRLSCAASGFYFNAYWMTWVRQAPGKGLEWVANINLDGTEIYYLDSVKGRFTVSRDNVKNSVFLQMSSLRVEDTAVYFCARLEWGGRNGWVSPWGQGTLVTVSSGGGGSGGGGSGGGGSDIVMTQSPSSLSASVGDRVSISCRASQSISSYLNWYQQKPGKAPKLLIYKTSSLESGVPSRFSGRGSGTDFTLTISSLQPEDFATYYCQQSYSTPLTFGGGTKVEIKR
With B2, in experiment [2], the “Fold increase in affinity scFv (KD wild type/KD matured)” value came out at 11.4 fold. In experiment [3], this molecule had a Kd of 0.638 nM.
